Patent publication US20230235304
Numbering of substitutions follows the chain as printed.

Legend:
Test in all cases: cell_activity
Conditions in all cases: PAM 5'-GCTG-3'; HEK293T; averaged over AAVS1, VEGFA, EMX1 targets
[1] = system: T1, CRISPR nuclease variant I521R I521R (synthetic construct)
T1 sequence: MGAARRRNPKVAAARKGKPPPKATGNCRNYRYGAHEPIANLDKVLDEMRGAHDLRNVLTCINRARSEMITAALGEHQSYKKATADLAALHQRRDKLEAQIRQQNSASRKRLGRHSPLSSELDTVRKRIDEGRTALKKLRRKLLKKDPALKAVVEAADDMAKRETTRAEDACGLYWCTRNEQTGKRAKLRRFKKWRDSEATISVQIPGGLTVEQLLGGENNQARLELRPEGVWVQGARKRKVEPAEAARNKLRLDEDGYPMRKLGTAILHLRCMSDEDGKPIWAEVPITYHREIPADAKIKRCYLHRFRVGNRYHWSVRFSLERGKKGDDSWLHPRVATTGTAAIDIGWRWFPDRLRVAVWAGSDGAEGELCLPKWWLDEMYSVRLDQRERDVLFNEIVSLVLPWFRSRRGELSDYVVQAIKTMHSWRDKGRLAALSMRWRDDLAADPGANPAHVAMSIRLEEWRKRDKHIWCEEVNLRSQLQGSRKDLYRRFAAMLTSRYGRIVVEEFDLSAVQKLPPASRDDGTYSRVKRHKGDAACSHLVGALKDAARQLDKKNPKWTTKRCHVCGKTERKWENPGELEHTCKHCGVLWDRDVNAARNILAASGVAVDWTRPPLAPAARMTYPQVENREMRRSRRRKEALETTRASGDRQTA

[2] = system: T2, CRISPR nuclease variant K136G,N220R,M380R K136G,N220R,M380R (synthetic construct)
T2 sequence: T1 sequence with K136G, N220R, M380R, R521I

[3] = system: T3, CRISPR nuclease variant L580G,L385G L580G,L385G (synthetic construct)
T3 sequence: T1 sequence with L385G, R521I, L580G

[4] = system: T4, CRISPR nuclease variant Q514G Q514G (synthetic construct)
T4 sequence: T1 sequence with Q514G, R521I

**Q.** What does the source list for “GGUCCCAUCGGAACGGGUUGUGGUUCCGACGGAGGGAUACAUUGGUGGGG / GGAGGGATACATTGGTGGGG / CCCCACCAATGTATCCCTCC [AAVS1 crRNA (Table 5) ; AAVS1 target (Table 5)]”?
**A.** binding signal (fold indels vs WT) [1]: 3.57; binding signal (fold indels vs WT) [2]: 4.54; binding signal (fold indels vs WT) [3]: 3.9; binding signal (fold indels vs WT) [4]: 3.53
